Assay results reported in patent US6191256A, “Recombinant factor VIII binding peptides” (Bayer Corporation, priority 1998, dated 2001).

Columns and labels:
rFVIII [1] = target: T1, rFVIII (Homo sapiens, UniProt P00451); test: column format binding assay, rFVIII mass per fraction by sandwich capture ELISA for the light chain; conditions: for 0.5M CaCl2 ng / 0.5M CaCl2 % total / 2% acetic acid % total / 2% acetic acid ng / Flow through % total / Total ng / Flow through ng: Table 6; for Flow through ng: 10,000 ng rFVIII in 1:10 PPF injected, 5° C.; for ELISA results % total: Table 9, 0.5M CaCl2 fraction
T1 sequence (P00451 20-2351): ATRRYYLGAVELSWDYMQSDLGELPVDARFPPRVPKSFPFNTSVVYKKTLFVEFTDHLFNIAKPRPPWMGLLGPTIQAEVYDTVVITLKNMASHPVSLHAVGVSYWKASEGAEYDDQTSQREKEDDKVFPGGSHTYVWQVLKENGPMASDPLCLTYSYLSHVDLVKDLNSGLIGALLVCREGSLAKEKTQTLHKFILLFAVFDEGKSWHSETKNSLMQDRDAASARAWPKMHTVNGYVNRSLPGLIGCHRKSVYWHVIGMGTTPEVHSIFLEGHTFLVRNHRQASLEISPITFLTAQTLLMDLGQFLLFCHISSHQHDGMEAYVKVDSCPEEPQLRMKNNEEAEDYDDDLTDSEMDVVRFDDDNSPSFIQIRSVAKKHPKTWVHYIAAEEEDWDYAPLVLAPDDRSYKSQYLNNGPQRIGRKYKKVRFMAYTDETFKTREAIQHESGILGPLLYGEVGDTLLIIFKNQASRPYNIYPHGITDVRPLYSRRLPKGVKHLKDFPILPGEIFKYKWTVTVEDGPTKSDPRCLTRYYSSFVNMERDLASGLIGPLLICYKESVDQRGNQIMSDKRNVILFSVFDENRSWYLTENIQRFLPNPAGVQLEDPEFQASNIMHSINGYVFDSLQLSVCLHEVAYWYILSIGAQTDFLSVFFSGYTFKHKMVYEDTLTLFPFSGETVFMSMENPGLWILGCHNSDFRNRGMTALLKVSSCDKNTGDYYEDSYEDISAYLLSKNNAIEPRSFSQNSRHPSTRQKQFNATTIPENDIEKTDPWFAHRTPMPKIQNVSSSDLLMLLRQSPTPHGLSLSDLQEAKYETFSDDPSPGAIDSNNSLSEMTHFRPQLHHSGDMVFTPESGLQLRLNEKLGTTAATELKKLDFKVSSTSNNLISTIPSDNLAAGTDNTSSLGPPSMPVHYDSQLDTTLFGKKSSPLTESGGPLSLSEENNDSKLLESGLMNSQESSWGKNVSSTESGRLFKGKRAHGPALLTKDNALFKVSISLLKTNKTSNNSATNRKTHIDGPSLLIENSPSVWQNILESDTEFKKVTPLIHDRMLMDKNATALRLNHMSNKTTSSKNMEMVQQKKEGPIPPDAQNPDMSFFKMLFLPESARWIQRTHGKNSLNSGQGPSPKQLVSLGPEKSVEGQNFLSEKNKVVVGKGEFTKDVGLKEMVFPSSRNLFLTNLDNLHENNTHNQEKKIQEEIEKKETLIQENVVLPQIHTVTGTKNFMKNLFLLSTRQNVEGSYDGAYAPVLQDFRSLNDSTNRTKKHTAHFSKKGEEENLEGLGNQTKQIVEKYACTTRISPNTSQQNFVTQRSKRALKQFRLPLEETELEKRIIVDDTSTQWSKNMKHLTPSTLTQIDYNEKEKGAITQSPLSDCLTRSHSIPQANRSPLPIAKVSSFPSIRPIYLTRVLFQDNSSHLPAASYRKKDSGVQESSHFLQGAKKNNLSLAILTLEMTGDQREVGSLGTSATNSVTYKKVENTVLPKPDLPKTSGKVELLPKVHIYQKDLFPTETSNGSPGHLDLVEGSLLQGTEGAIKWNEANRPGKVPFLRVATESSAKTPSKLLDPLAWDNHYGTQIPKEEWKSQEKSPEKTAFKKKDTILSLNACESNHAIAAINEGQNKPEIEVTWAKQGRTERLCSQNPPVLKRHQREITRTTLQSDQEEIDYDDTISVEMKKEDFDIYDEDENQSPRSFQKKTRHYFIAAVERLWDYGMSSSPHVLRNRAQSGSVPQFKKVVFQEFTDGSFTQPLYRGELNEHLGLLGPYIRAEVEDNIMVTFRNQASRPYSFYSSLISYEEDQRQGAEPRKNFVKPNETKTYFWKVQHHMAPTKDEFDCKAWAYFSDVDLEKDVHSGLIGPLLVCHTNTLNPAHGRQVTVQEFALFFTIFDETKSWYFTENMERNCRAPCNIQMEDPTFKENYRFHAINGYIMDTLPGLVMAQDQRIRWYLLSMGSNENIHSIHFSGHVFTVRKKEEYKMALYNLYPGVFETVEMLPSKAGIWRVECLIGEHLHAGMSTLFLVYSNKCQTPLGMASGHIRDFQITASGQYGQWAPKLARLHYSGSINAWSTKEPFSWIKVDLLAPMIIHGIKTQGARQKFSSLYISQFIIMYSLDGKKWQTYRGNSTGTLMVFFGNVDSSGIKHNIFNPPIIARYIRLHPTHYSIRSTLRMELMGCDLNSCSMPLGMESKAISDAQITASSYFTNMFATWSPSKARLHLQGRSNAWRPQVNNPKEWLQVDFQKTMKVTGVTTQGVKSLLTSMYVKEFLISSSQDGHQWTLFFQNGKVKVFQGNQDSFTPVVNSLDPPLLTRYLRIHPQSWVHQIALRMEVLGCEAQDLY
T1 sequence (P00451 1668-2351 limits assumed): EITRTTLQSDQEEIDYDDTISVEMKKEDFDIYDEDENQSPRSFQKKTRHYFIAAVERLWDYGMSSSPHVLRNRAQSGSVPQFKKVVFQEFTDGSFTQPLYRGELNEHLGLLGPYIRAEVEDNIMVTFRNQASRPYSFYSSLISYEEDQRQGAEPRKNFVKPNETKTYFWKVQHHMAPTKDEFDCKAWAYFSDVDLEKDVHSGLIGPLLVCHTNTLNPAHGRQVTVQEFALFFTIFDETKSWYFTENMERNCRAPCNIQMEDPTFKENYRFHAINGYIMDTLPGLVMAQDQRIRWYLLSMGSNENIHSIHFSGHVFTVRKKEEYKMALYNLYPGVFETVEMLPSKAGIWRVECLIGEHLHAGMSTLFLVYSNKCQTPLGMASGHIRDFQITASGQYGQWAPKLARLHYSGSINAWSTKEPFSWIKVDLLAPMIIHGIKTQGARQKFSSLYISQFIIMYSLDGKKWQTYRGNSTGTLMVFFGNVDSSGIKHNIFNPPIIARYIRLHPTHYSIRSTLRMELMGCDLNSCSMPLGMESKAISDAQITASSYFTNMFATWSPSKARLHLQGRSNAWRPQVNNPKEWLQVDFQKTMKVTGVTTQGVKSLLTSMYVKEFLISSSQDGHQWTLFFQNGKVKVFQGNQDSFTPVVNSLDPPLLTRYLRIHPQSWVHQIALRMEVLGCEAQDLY
Description: (§1) Immunoassay on rFVIII using a sandwich capture ELISA for the light chain and activity assay using a chromogenic substrate (COATEST Factor VIII kit from diaPharma, Franklin, Ohio) were performed on a BIOMEK® automated liquid handling system from Beckman Instruments (Brea, Calif.). The monoclonal antibody for rFVIII light chain (known as C7F7), the ELISA assay standard (lot A70K019), and the control for the activity assay (lot A70A001 @ 140 IU/mL) were from the Bayer Corporation (Berkeley, Calif.). The standard for the activity assay was at 11.2 IU/mL (Bayer, Clayton, N.C.), calibrated against the MEGA 1 standard, which is a working standard used by American manufacturers for measuring factor VIII activity (21).
(§2) Additional confirmatory binding assay and performance of the discovered binding peptides in terms of total rFVIII and activity recovery was performed in a column chromatographic format on a microbore HPLC. The resins were packed into 0.4×5 cm columns (Thomson, Springfield, Va.) and tested on the MICHROM HPLC system (Michrom BioResources, Auburn, Calif.). The elution program for the trials utilized the following method. The column was pre-equilibrated with equilibration buffer (as above). A 1 mL aliquot of 1:10 PPF followed by 1 mL of rFVIII (10,000 ng) in 1:10 PPF were injected and allowed sufficient time to flow through the column using equilibration buffer. The column was then washed with step elutions of 0.5 M and 1.0 M CaCl2 in equilibration buffer. The column was exposed to equilibration buffer. Remaining protein was eluted with 2% by volume glacial acetic acid in water. Columns were kept at 5° C. during the chromatographic runs. For each 1 mL injection (equilibration buffer, 1:10 PPF and 10,000 ng rFVIII in 1:10 PPF), the chromatographic cycle was run for 45 minutes (injection, flow through, 0.5 M CaCl2, 1.0 M CaCl2, equilibration buffer, 2% acetic acid, equilibration buffer).
(§3) A Gilson FC204 fraction collector at the HPLC outlet collected individual eluates for further analysis. Each collection tube had 100 μL hSA added to it to stabilize the rFVIII. Fractions collected from the 2% acetic acid eluates were neutralized with 2 M Tris, pH 10.5 to bring the pH to neutrality. The fractions were analyzed for total protein by the integration of the absorbance at 280 nm, for rFVIII by immunoassay (sandwich capture ELISA), and for rFVIII activity by a chromogenic substrate assay.
Tables 5 and 6 present the results from the additional confirmatory binding assays using the column format. The chromatography method was run by injecting the samples at a flow rate of 865 μL/min (413 cm/hr). In order to provide a 10 minute residence time of sample in the column the flow was decreased to 17 μL/min (10 cm/hr) upon injection.
Following the incubation, the flow was set at 865 μL/min (413 cm/hr) for the step clutions of 0.5 M CaCl2, 1.0 M CaCl2, and 2% acetic acid. Results are expressed in terms of the total mass of rFVIII in each fraction, as determined by the sandwich capture ELISA assay for the rFVIII light chain. […] A control using a non-binding peptide sequence (IGF) is also shown for comparison--in this case, 95% of the rFVIII loaded to the column was collected in the flow through fraction. Additional controls with no

rFVIII [2] = target: T1, rFVIII; test: rFVIII activity recovery from peptide columns by chromogenic substrate assay (COATEST); format: biochemical; conditions: for 0.5M CaCl2 IU / 2% acetic acid % total / 2% acetic acid IU / Flow through % total / Total IU / 0.5M CaCl2 % total / Flow through IU: Table 8; for 0.5M CaCl2 % total: activity recovery; for Flow through IU: rFVIII activity in fraction; for Activity results % total: Table 9, 0.5M CaCl2 fraction
Description: as §1, §2, §3
Tables 7 and 8 list the sequences for which activity recovery was determined by a chromogenic substrate assay (COASTEST kit, diaPharma, Franklin, Ohio). Chromatographc conditions are the same as described above for the results from Tables 5 and 6. It can be

rFVIII [3] = target: T1, rFVIII; test: confirmatory binding assay in filtration plate format using 14C-rFVIII; conditions: Table 4; for Total dpm / beads % total / beads dpm: 14C-rFVIII 30 nM; for 0.5M CaCl2 % total / 2% acetic acid % total / 2% acetic acid dpm / 0.5M CaCl2 dpm: 14C-rFVIII 30 nM in PPF, 5 mg beads; for 0.5M CaCl2 dpm: 5.0 × 10^15 dpm/mole, 5° C.; for beads % total / beads dpm: remaining on beads after washes
Description: Confirmatory binding assays were performed in a filtration plate format using individual peptide sequences synthesized directly onto the TOYOPEARL AF amino 650 M resin, at a final substitution density of 0.1 mmole/g resin. A slurry of each individual peptide sequence was prepared using deionized water. A 100 μL volume of beads (corresponding to 5 mg) was loaded into each well of the filtration plate (MULTISCREEN Assay System, Millipore, Bedford, Mass.), in triplicate for each peptide sequence. Beads were washed with 20% ethanol and incubated overnight with equilibration buffer (20 mM imidazole, 10 mM
CaCl2, 0.105 M NaCl, pH 6.9). A 100 μL aliquot of ^14 C-rFVIII diluted in neat PPF to a final concentration of 20-30 nM was loaded into each well and incubated for 1 hour at 5° C. Filtrate (unbound ^14 C-rFVIII) was collected into a microtiter plate and transferred to liquid scintillation vials for dpm counting. Beads were washed sequentially with: 100 μL of equilibration buffer for 15 minutes, 200 μL of 0.5 M CaCl2 (in equilibration buffer), 200 μL of 1.0 M CaCl2 (in equilibration buffer), and 200 uL of 2% by volume glacial acetic acid in water, for 1 hour each at 5° C. Scintillation counting on the unbound ^14 C-rFVIII (plus equilibration buffer wash), salt and acid washes, as well as on the beads was then performed and the overall mass balance calculated.
Beads presenting the appropriate peptide sequence on the surface were placed in the filtration plate wells and incubated sequentially with equilibration buffer, ^14 C-rFVIII in PPF, equilibration buffer, 0.5 M CaCl2 wash, 1.0 M CaCl2 wash and 2% acetic acid wash. After each incubation, filtrate was collected in microtiter plates, and dpm counted on each
In Table 3, the ^14 C-rFVIII was loaded at 20 nM (in PPF) and the radiolabeling yield was at 3.0×10^15 dpm/mole. In Table 4, the ^14 C-rFVIII was loaded at 30 nM (in PPF) and the radiolabeling yield was at 5.0×10^15 dpm/mole.

0.5M CaCl2 ng (rFVIII [1]) [ng] | 0.5M CaCl2 % total (rFVIII [1]) [%] | 2% acetic acid % total (rFVIII [1]) [%] | 2% acetic acid ng (rFVIII [1]) [ng] | Flow through % total (rFVIII [1]) [%] | Total ng (rFVIII [1]) [ng] | Flow through ng (rFVIII [1]) [ng] | ELISA results % total (rFVIII [1]) [%] | 0.5M CaCl2 IU (rFVIII [2]) [IU] | 2% acetic acid % total (rFVIII [2]) [%] | 2% acetic acid IU (rFVIII [2]) [IU] | Flow through % total (rFVIII [2]) [%] | Total IU (rFVIII [2]) [IU] | 0.5M CaCl2 % total (rFVIII [2]) [%] | Flow through IU (rFVIII [2]) [IU] | Activity results % total (rFVIII [2]) [%] | Total dpm (rFVIII [3]) [dpm] | 0.5M CaCl2 % total (rFVIII [3]) [%] | 2% acetic acid % total (rFVIII [3]) [%] | 2% acetic acid dpm (rFVIII [3]) [dpm] | Substance | also measured
8018 | 90 | 1 | 87 | 7 | 8863 | 641 | 90 | 48.3 | 0 | 0.09 | 2 | 50.3 | 96 | 0.8 | 96 | 4096 | 95 | 3 | 135 | 13 (KAQETW) [compound 13] | 0.5M CaCl2 dpm (rFVIII [3]): 3884 dpm; beads % total (rFVIII [3]): 2%; beads dpm (rFVIII [3]): 77 dpm
4611 | 55 | 1 | 121 | 42 | 8427 | 3572 | 55 | 27.2 | 0 | 0.08 | 38 | 45.4 | 60 | 17.3 | 60 | 2330 | 93 | 5 | 115 | 15 (VYGVGG) [compound 15] | 0.5M CaCl2 dpm (rFVIII [3]): 2162 dpm; beads % total (rFVIII [3]): 2%; beads dpm (rFVIII [3]): 53 dpm
7481 | 78 | 11 | 1069 | 7 | 9641 | 639 | 78 | 54.4 | 0 | 0.0 | 4 | 60.4 | 90 | 2.5 | 90 | 2208 | 48 | 23 | 518 | 11 (NAIFQW) [compound 11] | 0.5M CaCl2 dpm (rFVIII [3]): 1049 dpm; beads % total (rFVIII [3]): 29%; beads dpm (rFVIII [3]): 641 dpm
